2 molecules from patent US20260015399A1 (Boehringer Ingelheim, published 2026) can be followed below.

*1 amine or outer side, *2 acyl side, *3 side chain or, on linkers, in order; H or OH if unused. Side-chain parts run from the residue outwards. The star is where a group is joined. C18 diacid = O=C(O)CCCCCCCCCCCCCCCCC(=O)*; γGlu = O=C(O)[C@H](CCC(=O)[*:2])N[*:1]; Isovaleryl = CC(C)CC(=O)*; Ahx = NCCCCCC(=O)O

The target of the test is T1, human NPY2 receptor (human, UniProt P49146 1-381).
T1 construct: whole, on cells; also called hNPY2-R; hNPY2R
T1 sequence (looked up): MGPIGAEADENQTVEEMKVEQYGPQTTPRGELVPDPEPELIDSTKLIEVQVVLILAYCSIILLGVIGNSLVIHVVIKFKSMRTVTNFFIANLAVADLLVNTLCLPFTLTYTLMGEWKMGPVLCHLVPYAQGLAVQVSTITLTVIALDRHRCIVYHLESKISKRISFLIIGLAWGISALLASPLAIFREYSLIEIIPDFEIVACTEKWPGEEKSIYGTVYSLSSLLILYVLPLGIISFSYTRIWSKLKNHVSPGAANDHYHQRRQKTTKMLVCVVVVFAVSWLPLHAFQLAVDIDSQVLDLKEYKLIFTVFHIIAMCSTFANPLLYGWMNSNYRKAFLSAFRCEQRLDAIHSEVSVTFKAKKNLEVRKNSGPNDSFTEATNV
Description: RLB: displacement of 125I-PYY(1-36) from hNPY2R membranes. Background: Displacement assays read how much labelled ligand stays bound in the presence of the test substance.

B1: Compound 27 (peptide)
peptide: Isovaleryl-APEK([Ahx-γGlu-C18 diacid])PEEDAEPEESQRYYVSLRHYYNWLTRQRY-NH2
SMILES: CC(C)CC(=O)N[C@@H](C)C(=O)N1CCC[C@H]1C(=O)N[C@@H](CCC(=O)O)C(=O)N[C@@H](CCCCNC(=O)CCCCCNC(=O)CC[C@H](NC(=O)CCCCCCCCCCCCCCCCC(=O)O)C(=O)O)C(=O)N1CCC[C@H]1C(=O)N[C@@H](CCC(=O)O)C(=O)N[C@@H](CCC(=O)O)C(=O)N[C@@H](CC(=O)O)C(=O)N[C@@H](C)C(=O)N[C@@H](CCC(=O)O)C(=O)N1CCC[C@H]1C(=O)N[C@@H](CCC(=O)O)C(=O)N[C@@H](CCC(=O)O)C(=O)N[C@@H](CO)C(=O)N[C@@H](CCC(N)=O)C(=O)N[C@@H](CCCNC(=N)N)C(=O)N[C@@H](Cc1ccc(O)cc1)C(=O)N[C@@H](Cc1ccc(O)cc1)C(=O)N[C@H](C(=O)N[C@@H](CO)C(=O)N[C@@H](CC(C)C)C(=O)N[C@@H](CCCNC(=N)N)C(=O)N[C@@H](Cc1c[nH]cn1)C(=O)N[C@@H](Cc1ccc(O)cc1)C(=O)N[C@@H](Cc1ccc(O)cc1)C(=O)N[C@@H](CC(N)=O)C(=O)N[C@@H](Cc1c[nH]c2ccccc12)C(=O)N[C@@H](CC(C)C)C(=O)N[C@H](C(=O)N[C@@H](CCCNC(=N)N)C(=O)N[C@@H](CCC(N)=O)C(=O)N[C@@H](CCCNC(=N)N)C(=O)N[C@@H](Cc1ccc(O)cc1)C(N)=O)[C@@H](C)O)C(C)C
As a reminder, the Ki is a dissociation constant, usually derived from enzyme kinetics or from competition with a known ligand. As for B1, the affinity corresponds to a Ki of 10.5 nM.

B2: Compound 28 (peptide)
peptide: Isovaleryl-APEK([Ahx-γGlu-C18 diacid])PPEDATPEEIQRYYVSLRHYYNWLTRQRY-NH2
SMILES: CC[C@H](C)[C@H](NC(=O)[C@H](CCC(=O)O)NC(=O)[C@H](CCC(=O)O)NC(=O)[C@@H]1CCCN1C(=O)[C@@H](NC(=O)[C@H](C)NC(=O)[C@H](CC(=O)O)NC(=O)[C@H](CCC(=O)O)NC(=O)[C@@H]1CCCN1C(=O)[C@@H]1CCCN1C(=O)[C@H](CCCCNC(=O)CCCCCNC(=O)CC[C@H](NC(=O)CCCCCCCCCCCCCCCCC(=O)O)C(=O)O)NC(=O)[C@H](CCC(=O)O)NC(=O)[C@@H]1CCCN1C(=O)[C@H](C)NC(=O)CC(C)C)[C@@H](C)O)C(=O)N[C@@H](CCC(N)=O)C(=O)N[C@@H](CCCNC(=N)N)C(=O)N[C@@H](Cc1ccc(O)cc1)C(=O)N[C@@H](Cc1ccc(O)cc1)C(=O)N[C@H](C(=O)N[C@@H](CO)C(=O)N[C@@H](CC(C)C)C(=O)N[C@@H](CCCNC(=N)N)C(=O)N[C@@H](Cc1c[nH]cn1)C(=O)N[C@@H](Cc1ccc(O)cc1)C(=O)N[C@@H](Cc1ccc(O)cc1)C(=O)N[C@@H](CC(N)=O)C(=O)N[C@@H](Cc1c[nH]c2ccccc12)C(=O)N[C@@H](CC(C)C)C(=O)N[C@H](C(=O)N[C@@H](CCCNC(=N)N)C(=O)N[C@@H](CCC(N)=O)C(=O)N[C@@H](CCCNC(=N)N)C(=O)N[C@@H](Cc1ccc(O)cc1)C(N)=O)[C@@H](C)O)C(C)C
In turn, B2 showed an inhibition constant (Ki) of 0.49 nM.
